The values that follow come from publication PMC10976588.

Series [1] is described as follows: MitoSOX staining in organoids. The conditions noted are these: glycan lost; control: WT organoids.
Series [2] is described as follows: JC-1 staining in organoids. The settings on record: glycan lost; control: WT organoids.
Series [3] is described as follows: complex I, III, IV, V activity kits. The settings on record: glycan lost; control: WT organoids.
Series [4] can be described thus: Western blot, whole-cell lysate. The conditions noted are these: glycan changed form; control: WT crypts. On the technique in general: Immunoblotting shows a protein as a band on a membrane.
Series [5] in a line: Western blot of lysosome fractions after CCCP. The settings on record: glycan lost; control: WT organoids.
Series [6] can be described thus: Western blot of Pink1, pS65-Ub, whole-cell lysate. The settings on record: glycan lost; control: WT organoids.

B1: N-acyl sphingosine amidohydrolase 2 (Asah2): Asah2-N444Q (protein)
parent chain: MAKRTFSTLEAFLIFLLVIMTVITVALLTLLFVTSGTIENHKDSGNHWFSTTLGSTTTQPPPITQTPNFPSFRNFSGYYIGVGRADCTGQVSDINLMGYGKNGQNARGLLTRLFSRAFILADPDGSNRMAFVSVELCMISQRLRLEVLKRLESKYGSLYRRDNVILSAIHTHSGPAGFFQYTLYILASEGFSNRTFQYIVSGIMKSIDIAHTNLKPGKIFINKGNVANVQINRSPSSYLLNPQSERARYSSNTDKEMLVLKLVDLNGEDLGLISWFAIHPVSMNNSNHFVNSDNMGYAAYLFEQEKNKGYLPGQGPFVAGFASSNLGDVSPNILGPHCVNTGESCDNDKSTCPNGGPSMCMASGPGQDMFESTHIIGRIIYQKAKELYASASQEVTGPVLAAHQWVNMTDVSVQLNATHTVKTCKPALGYSFAAGTIDGVSGLNITQGTTEGDPFWDTLRDQLLGKPSEEIVECQKPKPILLHSGELTIPHPWQPDIVDVQIVTVGSLAIAAIPGELTTMSGRRFREAIKKEFALYGMKDMTVVIAGLSNVYTHYITTYEEYQAQRYEAASTIYGPHTLSAYIQLFRDLAKAIATDTVANMSSGPEPPFFKNLIASLIPNIADRAPIGKHFGDVLQPAKPEYRVGEVVEVIFVGANPKNSAENQTHQTFLTVEKYEDSVADWQIMYNDASWETRFYWHKGILGLSNATIYWHIPDTAYPGIYRIRYFGHNRKQELLKPAVILAFEGISSPFEVVTT
With B1, in series [1], the “other: mitochondrial ROS level” value was “increases”. Besides, the “other: mitochondrial membrane potential” value in series [2] was “decreases”. Also, the “other: respiratory chain complex activity” value in series [3] was “decreases”.

B2: N-acyl sphingosine amidohydrolase 2 (Asah2): Fut2ΔISC (protein)
parent chain: B1 parent chain
Take B2: in series [4], the expression_or_secretion result is reported as “no change”.

B3: basigin (Bsg): Bsg-N306Q (protein)
parent chain: MAAALLLALAFTLLSGQGACAAAGFLKAPLSQERWAGGSVVLHCEAVGSPIPEIQWWFEGNAPNDSCSQLWDGARLDRVHIHAAYRQHAASSLSVDGLTAEDTGTYECRASSDPDRNHLTRPPRVKWVRAQASVVVLEPGTIQTSVQEVNSKTQLTCSLNSSGVDIVGHRWMRGGKVLQEDTLPDLHTKYIVDADDRSGEYSCIFLPEPVGRSEINVEGPPRIKVGKKSEHSSEGELAKLVCKSDASYPPITDWFWFKTSDTGEEEAITNSTEANGKYVVVSTPEKSQLTISNLDVNVDPGTYVCNATNAQGTTRETISLRVRSRMAALWPFLGIVAEVLVLVTIIFIYEKRRKPDQTLDEDDPGAAPLKGSGTHMNDKDKNVRQRNAT
Turning to B3, in series [1], the “other: mitochondrial ROS level” value was “no change”. In series [2], the “other: mitochondrial membrane potential” value is recorded as “no change”.

B4: basigin (Bsg): Fut2ΔISC (protein)
parent chain: B3 parent chain
As to B4, in series [4], the expression_or_secretion result was “no change”.

B5: Niemann–Pick type C intracellular cholesterol transporter 1 (Npc1): Npc1-N961Q (protein)
parent chain: MGAHHPALGLLLLLLCPAQVFSQSCVWYGECGIATGDKRYNCKYSGPPKPLPKDGYDLVQELCPGLFFDNVSLCCDIQQLQTLKSNLQLPLQFLSRCPSCFYNLMTLFCELTCSPHQSQFLNVTATEDYFDPKTQENKTNVKELEYFVGQSFANAMYNACRDVEAPSSNEKALGLLCGRDARACNATNWIEYMFNKDNGQAPFTIIPVFSDLSILGMEPMRNATKGCNESVDEVTGPCSCQDCSIVCGPKPQPPPPPMPWRIWGLDAMYVIMWVTYVAFLFVFFGALLAVWCHRRRYFVSEYTPIDSNIAFSVNSSDKGEASCCDPLGAAFDDCLRRMFTKWGAFCVRNPTCIIFFSLAFITVCSSGLVFVQVTTNPVELWSAPHSQARLEKEYFDKHFGPFFRTEQLIIQAPNTSVHIYEPYPAGADVPFGPPLNKEILHQVLDLQIAIESITASYNNETVTLQDICVAPLSPYNKNCTIMSVLNYFQNSHAVLDSQVGDDFYIYADYHTHFLYCVRAPASLNDTSLLHGPCLGTFGGPVFPWLVLGGYDDQNYNNATALVITFPVNNYYNDTERLQRAWAWEKEFISFVKNYKNPNLTISFTAERSIEDELNRESNSDVFTVIISYVVMFLYISLALGHIQSCSRLLVDSKISLGIAGILIVLSSVACSLGIFSYMGMPLTLIVIEVIPFLVLAVGVDNIFILVQTYQRDERLQEETLDQQLGRILGEVAPTMFLSSFSETSAFFFGALSSMPAVHTFSLFAGMAVLIDFLLQITCFVSLLGLDIKRQEKNHLDILCCVRGADDGQGSHASESYLFRFFKNYFAPLLLKDWLRPIVVAVFVGVLSFSVAVVNKVDIGLDQSLSMPNDSYVIDYFKSLAQYLHSGPPVYFVLEEGYNYSSRKGQNMVCGGMGCDNDSLVQQIFNAAELDTYTRVGFAPSSWIDDYFDWVSPQSSCCRLYNVTHQFCNASVMDPTCVRCRPLTPEGKQRPQGKEFMKFLPMFLSDNPNPKCGKGGHAAYGSAVNIVGDDTYIGATYFMTYHTILKTSADYTDAMKKARLIASNITETMRSKGSDYRVFPYSVFYVFYEQYLTIIDDTIFNLSVSLGSIFLVTLVVLGCELWSAVIMCITIAMILVNMFGVMWLWGISLNAVSLVNLVMSCGISVEFCSHITRAFTMSTKGSRVSRAEEALAHMGSSVFSGITLTKFGGIVVLAFAKSQIFEIFYFRMYLAMVLLGATHGLIFLPVLLSYIGPSVNKAKRHTTYERYRGTERERLLNF
On to B5, for which the “other: mitophagy, delivery of mitochondrial proteins to lysosomes” value in series [5] is listed as “decreases”. Moreover, the “other: mitochondrial ROS level” value in series [1] is given as “increases”. The “other: mitophagy activation by CCCP” value in series [6] is “no change”. Moreover, the “other: mitochondrial membrane potential” value in series [2] is given as “decreases”.

B6: Niemann–Pick type C intracellular cholesterol transporter 1 (Npc1): Fut2ΔISC (protein)
parent chain: B5 parent chain
On to B6, for which the expression_or_secretion result in series [4] was “no change”.
